How the values were obtained:
[1] = target: T1, E. coli FimH, wild type, on E. coli (BW25113) cells (E. coli, UniProt P08191 22-300); assay: flow cytometry and immunofluorescence of rHMGB1 on E. coli BW25113
T1 construct: whole, on cells; also called WT FimH; ∆FimHWT

[2] = target: T2, ToH1 peptide of Asa1 (Enterococcus faecalis), […] (Enterococcus faecalis); assay: ELISA on ToH1 peptides (FIG.10A)
[3] = target: T3, ToH1 peptide of BmpC (Borrelia burgdorferi), SYERPDI (Borrelia burgdorferi); assay: ELISA on ToH1 peptides (FIG.10A)
T3 construct: also called BmpC ToH1 peptide

[4] = target: T4, ToH1 peptide of OmpA (Bacteroidales), SFELPTI (Bacteroidales); assay: ELISA on ToH1 peptides (FIG.10A)
T4 construct: also called OmpA ToH1 peptide

[5] = target: T5, ToH1 peptide of LptF (E. coli), SPEKPTV (E. coli); assay: ELISA on ToH1 peptides (FIG.10A)
T5 construct: also called LptF ToH1 peptide

[6] = target: T6, ToH1 peptide of HyR3 (Candida albicans), TFEPPVV (Candida albicans); assay: ELISA on ToH1 peptides (FIG.10A)
T6 construct: also called HyR3 ToH1 peptide

[7] = target: T2, ToH1 peptide of Asa1 (Enterococcus …); assay: ELISA on ToH1 peptides (FIG.10B)
[8] = target: T3, ToH1 peptide of BmpC (Borrelia …); assay: ELISA on ToH1 peptides (FIG.10B)
[9] = target: T4, ToH1 peptide of OmpA (Bacteroidales), …; assay: ELISA on ToH1 peptides (FIG.10B)
[10] = target: T5, ToH1 peptide of LptF (E. coli), SPEKPTV; assay: ELISA on ToH1 peptides (FIG.10B)
[11] = target: T6, ToH1 peptide of HyR3 (Candida …); assay: ELISA on ToH1 peptides (FIG.10B)

Measured: binding result

T1 sequence (P08191 22-300): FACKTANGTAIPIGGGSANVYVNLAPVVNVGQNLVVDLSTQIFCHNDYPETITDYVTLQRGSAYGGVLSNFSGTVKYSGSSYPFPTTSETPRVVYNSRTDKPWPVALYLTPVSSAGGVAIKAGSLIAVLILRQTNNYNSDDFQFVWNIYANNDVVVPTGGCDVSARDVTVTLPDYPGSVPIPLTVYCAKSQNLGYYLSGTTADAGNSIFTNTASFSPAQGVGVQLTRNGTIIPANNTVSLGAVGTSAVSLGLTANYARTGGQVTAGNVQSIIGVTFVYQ

B1: Recombinant human HMGB1 (rHMGB1) (ligand)
chain: MGKGDPKKPRGKMSSYAFFVQTCREEHKKKHPDASVNFSEFSKKCSERWKTMSAKEKGKFEDMAKADKARYEREMKTYIPPKGETKKKFKDPNAPKRPPSAFFLFCSEYRPKIKGEHPGLSIGDVAKKLGEMWNNTAADDKQPYEKKAAKLKEKYEKDIAAYRAKGKPDAAKKGVVKAEKSKKKKEEEEDEEDEEDEEEEEDEEDEDEEEDDDDE
notes: also called High mobility group box 1
binds: [1]

B2: G6 scFv (scFv)
scFv: QVQLQQSGPGLVKPSQTLSLTCAISGDSVSSNSAAWNWIRQSPSRGLEWLGRTYYRSKWYNDYAVSVKSRITINPDTSKNQFSLQLNSVTPEDTAVYYCARRSTWGTFDYWGQGTLVTVSSGGGGSGGGGSGGGGSGGGGASDIVMTQTPDSLAVSLGERATINCKSSQSVLYSSNNKNYLAWYQQKPGQPPKLLIYWASTRESGVPDRFSGSGSGTDFTLTISSLQAEDVAVYYCQQYYALPLTFGGGTKLEIKGSHHHHHH
notes: also called antibody G6
binds: [2] | [3] | [4] | [5] | [6]

B3: F5 scFv (scFv)
scFv: EVQLVQSGPEVKKPGASVKVSCKASGFIFSNYGIGWVRQAPGQGLEWLGWISGYNGQTNYAQTVQGRVTMTADTSTTTAYMDLRNLRSDDTAIYYCARQSIPYYMDVWGKGTMVTVSSGGGGSGGGGSGGGGSGGGGASDIVMTQSPLSSPVTLGQPASISCRSSQSLVHSNGNTYLSWLHQRPGQPPRLLIYRISNRLSGVPDRFSGSGAGTDFTLKISRVEAEDVGVYYCMQAKQFPVTFGQGTRLEIKGSHHHHHH
notes: also called antibody F5
binds: [7] | [8] | [9] | [10] | [11]
